Results published in article PMC12212138, “Crystal structure and mutagenesis of a nucleic acid–binding BRCT domain in human PARP4”.

Columns and labels:
Settings in all cases: protein: recombinant; tags: N-terminal His-SUMO removed by TEV; label: 5'-6-FAM; predicted intramolecular fold
PARP4 BRCT F39Q = target: T1, PARP4 BRCT F39Q (human, UniProt Q9UKK3 1-100, F39Q); test: EMSA; 20 nM probe; FP: 50 mM Tris pH 7.5, 50 mM NaCl, 1 mM MgCl2, 0.05% NP40, 2 mM DTT, 5% glycerol, 25 ug/ml BSA, room temp 30 min; EMSA: 50 mM Tris pH 7.5, 50 mM NaCl, 4% Ficoll PM400, 0.05% NP40, 2 mM DTT, 0-18 uM protein, room temp 30 min, gel at 4 C
T1 sequence: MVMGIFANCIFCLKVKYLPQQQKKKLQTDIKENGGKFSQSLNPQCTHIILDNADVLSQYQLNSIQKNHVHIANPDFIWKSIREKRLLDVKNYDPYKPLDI

PARP4 BRCT WT [1] = target: T2, PARP4 BRCT WT (human, UniProt Q9UKK3 1-100); test: as above
T2 sequence: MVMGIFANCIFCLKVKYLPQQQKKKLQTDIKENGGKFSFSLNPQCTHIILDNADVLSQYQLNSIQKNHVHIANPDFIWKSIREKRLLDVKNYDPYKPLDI

PARP4 BRCT-WGR-CAT WT = target: T3, PARP4 BRCT-WGR-CAT WT (human, UniProt Q9UKK3 1-573); test: FP; 3 or 15 nM probe; FP: 50 mM Tris pH 7.5, 50 mM NaCl, 1 mM MgCl2, 0.05% NP40, 2 mM DTT, 5% glycerol, 25 ug/ml BSA, room temp 30 min; EMSA: 50 mM Tris pH 7.5, 50 mM NaCl, 4% Ficoll PM400, 0.05% NP40, 2 mM DTT, 0-18 uM protein, room temp 30 min, gel at 4 C
T3 sequence: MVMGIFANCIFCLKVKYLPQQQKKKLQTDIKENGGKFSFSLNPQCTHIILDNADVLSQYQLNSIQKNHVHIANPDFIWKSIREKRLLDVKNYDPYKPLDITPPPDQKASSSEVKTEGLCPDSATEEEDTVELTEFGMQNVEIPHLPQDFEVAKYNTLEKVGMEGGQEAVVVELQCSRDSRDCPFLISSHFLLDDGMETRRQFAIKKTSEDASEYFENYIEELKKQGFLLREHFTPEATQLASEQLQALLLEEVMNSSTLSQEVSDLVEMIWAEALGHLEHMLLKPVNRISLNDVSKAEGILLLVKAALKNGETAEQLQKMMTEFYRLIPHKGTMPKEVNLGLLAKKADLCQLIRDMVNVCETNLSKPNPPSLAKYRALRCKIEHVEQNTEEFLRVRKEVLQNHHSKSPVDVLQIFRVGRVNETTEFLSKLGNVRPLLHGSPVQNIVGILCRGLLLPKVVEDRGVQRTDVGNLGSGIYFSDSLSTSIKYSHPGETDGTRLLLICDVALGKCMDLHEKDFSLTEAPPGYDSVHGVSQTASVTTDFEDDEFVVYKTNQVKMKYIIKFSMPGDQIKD

PARP4 BRCT WT [2] = target: T2, PARP4 BRCT WT; test: FP; 3 nM probe, probe concentration comparison; FP: 50 mM Tris pH 7.5, 50 mM NaCl, 1 mM MgCl2, 0.05% NP40, 2 mM DTT, 5% glycerol, 25 ug/ml BSA, room temp 30 min; EMSA: 50 mM Tris pH 7.5, 50 mM NaCl, 4% Ficoll PM400, 0.05% NP40, 2 mM DTT, 0-18 uM protein, room temp 30 min, gel at 4 C
PARP4 BRCT WT [3] = target: T2, PARP4 BRCT WT; test: FP; 30 nM probe, probe concentration comparison; FP: 50 mM Tris pH 7.5, 50 mM NaCl, 1 mM MgCl2, 0.05% NP40, 2 mM DTT, 5% glycerol, 25 ug/ml BSA, room temp 30 min; EMSA: 50 mM Tris pH 7.5, 50 mM NaCl, 4% Ficoll PM400, 0.05% NP40, 2 mM DTT, 0-18 uM protein, room temp 30 min, gel at 4 C
[4] = target: T4, PARP4 BRCT-WGR-CAT K23/24Q (human, UniProt Q9UKK3 1-573, K23Q;K24Q); test: EMSA; 20 nM probe; rough estimate; FP: 50 mM Tris pH 7.5, 50 mM NaCl, 1 mM MgCl2, 0.05% NP40, 2 mM DTT, 5% glycerol, 25 ug/ml BSA, room temp 30 min; EMSA: 50 mM Tris pH 7.5, 50 mM NaCl, 4% Ficoll PM400, 0.05% NP40, 2 mM DTT, 0-18 uM protein, room temp 30 min, gel at 4 C
T4 sequence: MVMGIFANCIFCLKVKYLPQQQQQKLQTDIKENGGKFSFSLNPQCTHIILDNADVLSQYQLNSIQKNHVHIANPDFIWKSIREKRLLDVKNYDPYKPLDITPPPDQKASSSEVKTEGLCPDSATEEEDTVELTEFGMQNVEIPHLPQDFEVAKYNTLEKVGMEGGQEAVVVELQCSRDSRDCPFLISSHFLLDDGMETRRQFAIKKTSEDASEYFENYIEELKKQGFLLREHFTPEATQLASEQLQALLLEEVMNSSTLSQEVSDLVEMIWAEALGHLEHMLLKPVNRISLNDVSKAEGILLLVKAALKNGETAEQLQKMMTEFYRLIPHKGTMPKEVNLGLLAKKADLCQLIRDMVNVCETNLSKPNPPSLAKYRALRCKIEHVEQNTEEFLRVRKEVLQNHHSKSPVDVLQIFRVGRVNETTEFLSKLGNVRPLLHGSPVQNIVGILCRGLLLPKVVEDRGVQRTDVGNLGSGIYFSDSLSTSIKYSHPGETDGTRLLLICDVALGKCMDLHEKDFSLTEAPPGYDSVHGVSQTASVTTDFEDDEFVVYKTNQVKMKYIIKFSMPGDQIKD

B1: vtRNA1-3 (structured_RNA)
RNA: GGCUGGCUUUAGCUCAGCGGUUACUUCGCGUGUCAUCAAACCACCUCUCUGGGUUGUUCGAGACCCGCGGGCGCUCUCCAGCCCUCUU
Kd (PARP4 BRCT F39Q): 0.9 ± 0.5 µM | Kd (PARP4 BRCT WT [1]): 0.5 ± 0.2 µM | Kd (PARP4 BRCT-WGR-CAT WT): 27 ± 9 µM | Kd (PARP4 BRCT WT [2]): 19 ± 3 µM | Kd (PARP4 BRCT WT [3]): 18 ± 3 µM | Kd [4]: ~54 µM
